Reference: the Human Domainome abundance scans (Beltran et al. 2025)

B1: Activity-dependent neuroprotector homeobox protein, residues 770 to 810; numbered along this chain, Q9H2P0 (parent)
chain: FLTKYFNKQPYPTRREIEKLAASLWLWKSDIASHFSNKRKK
B2: POU domain, class 6, transcription factor 2, residues 609 to 663; numbered along this chain, P78424 (parent)
chain: KRRTSFTPQALEILNAHFEKNTHPSGQEMTEIAEKLNYDREVVRVWFCNKRQALK

Variants of: B1
Experiment: abundance fitness (aPCA) (normalised: wild type 0, dead -1); higher = more abundant; growth selection in yeast, the domain comes from the species named
Conditions: Homo sapiens

Abundance fitness of substitutions, site by site:
F1: S -0.09, P -0.375, C -0.854, R -1.12, M -0.176, N -0.142, D -0.805, K -0.36, T -0.158, L -1.24, G -0.574
L2: A -0.753, N -0.555, R -0.789, G -0.812, K -0.622, F 0.098, P -0.532, V -0.369, C -0.571, S -0.88, T -0.661, D -0.822, E -1.06, W 0.044, Q -0.595, H -0.738

Variants of: B2
Experiment: as above
Conditions: Homo sapiens

Abundance fitness of substitutions, site by site:
C48: M 0.18, N 0.277, T -0.197, S 0.039, W 0.02, G -0.008, Q 0.279, V 0.124, D -0.144, Y -0.062, R -0.057, E 0.259, I -0.475, F -0.5
V42: D -0.012, G -0.056, Y -0.099, W -0.151, E 0.004, P 0.019, T 0.002, R -0.176, M 0.034, K 0.066, N -0.064, S 0.029, Q -0.124, I -0.117, L 0.061
N49: M -0.177, A -0.038, S -0.061, G -0.13, Y -0.218, H -0.18, Q 0.03, D -0.152, F -0.292, W -0.339, L -0.292, P -0.683, R -0.157, E 0.177, I -0.226, K 0.008, V -0.138
K50: R 0.022, G -0.491, D -0.946, I -0.916, F -1.15, W -0.836, P -1.19, V -0.638, L -0.834, S -0.21, T -0.201, C -0.662, A -0.125, H -0.444, M -0.184, Y -1.01, E -0.156, N -0.222
K55: V -0.304, N -0.186, G -0.226, R 0.001
L54: R -0.103, I -0.242, Q -0.175, H -0.159, D -0.182, Y -0.417, P 0.042, K -0.159, M -0.106, V -0.101, T -0.217, S -0.065, A -0.002, F -0.199, C -0.258, E -0.133
E41: N -0.185, C -0.119, W -0.319, L -0.617, Y -0.321, M -0.42, S -0.153, T -0.082, A -0.218, G -0.186, K 0.021, Q -0.216, R -0.107, P -0.879, V -0.496, F -0.743, I -0.504, D -0.104, H -0.29
R44: H -0.199, P -0.421, L -0.21, F -0.117, N -0.195, D -0.179, I -0.152, M -0.075, W 0.037, V 0.034, E 0.027, K -0.195, A -0.017, S -0.094, T 0.018, Y 0.062, C -0.076
D39: N -0.138, Q -0.152, K -0.257, H -0.113, W -0.54, G -0.146, F -0.635, V -0.418, S -0.052, R -0.131, I -0.597, M -0.483, T -0.002, C -0.093, P 0.037, E -0.208, Y -0.425
V43: I -0.218, R -0.935, D -0.764
